Assay results published in patent US20210079115A1 (Janssen / Centocor, published 2021).

Biological target: full length human PSMA on cells (LNCaP, C4-2B, LNCaP AR, 22RV1 prostate tumor cells; human tissue) (human, UniProt Q04609 1-750)
Assay: cell-based or functional assay

Chain of full length human PSMA on cells (LNCaP, C4-2B, LNCaP AR, 22RV1 prostate tumor cells; human tissue) (Q04609 whole entry): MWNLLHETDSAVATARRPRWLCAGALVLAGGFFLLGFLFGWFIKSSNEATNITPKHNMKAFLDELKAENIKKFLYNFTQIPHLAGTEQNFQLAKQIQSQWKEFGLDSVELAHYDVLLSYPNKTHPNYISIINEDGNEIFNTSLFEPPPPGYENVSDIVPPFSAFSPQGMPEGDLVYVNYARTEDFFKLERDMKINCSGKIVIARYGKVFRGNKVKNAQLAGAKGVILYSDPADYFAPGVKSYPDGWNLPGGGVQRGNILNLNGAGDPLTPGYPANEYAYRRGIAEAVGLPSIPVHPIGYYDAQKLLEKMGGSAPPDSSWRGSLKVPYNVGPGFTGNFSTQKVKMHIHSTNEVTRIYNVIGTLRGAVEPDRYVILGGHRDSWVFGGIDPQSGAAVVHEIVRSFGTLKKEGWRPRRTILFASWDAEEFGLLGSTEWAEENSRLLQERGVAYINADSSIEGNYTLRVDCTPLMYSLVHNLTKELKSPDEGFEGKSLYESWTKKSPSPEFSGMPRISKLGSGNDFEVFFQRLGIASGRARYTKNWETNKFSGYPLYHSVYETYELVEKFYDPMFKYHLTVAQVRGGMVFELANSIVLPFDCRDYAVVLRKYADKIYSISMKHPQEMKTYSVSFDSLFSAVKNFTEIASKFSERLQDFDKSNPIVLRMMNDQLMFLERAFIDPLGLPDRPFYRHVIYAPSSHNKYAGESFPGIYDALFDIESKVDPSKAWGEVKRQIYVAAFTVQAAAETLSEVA

B1: PS3B27 PSMA×CD3 bispecific antibody (PSMB127 × CD3B219) (bispecific antibody, human IgG4 S228P, kappa, lambda, F234A L235A)
heavy 1: not shown
light 1: not shown
heavy 2: EVQLVESGGGLVQPGGSLRLSCAASGFTFNTYAMNWVRQAPGKGLEWVARIRSKYNNYATYYAASVKGRFTISRDDSKNSLYLQMNSLKTEDTAVYYCARHGNFGNSYVSWFAYWGQGTLVTVSSASTKGPSVFPLAPCSRSTSESTAALGCLVKDYFPEPVTVSWNSGALTSGVHTFPAVLQSSGLYSLSSVVTVPSSSLGTKTYTCNVDHKPSNTKVDKRVESKYGPPCPPCPAPEAAGGPSVFLFPPKPKDTLMISRTPEVTCVVVDVSQEDPEVQFNWYVDGVEVHNAKTKPREEQFNSTYRVVSVLTVLHQDWLNGKEYKCKVSNKGLPSSIEKTISKAKGQPREPQVYTLPPSQEEMTKNQVSLTCLVKGFYPSDIAVEWESNGQPENNYKTTPPVLDSDGSFLLYSKLTVDKSRWQEGNVFSCSVMHEALHNHYTQKSLSLSLGK
light 2: QTVVTQEPSLTVSPGGTVTLTCRSSTGAVTTSNYANWVQQKPGQAPRGLIGGTNKRAPGTPARFSGSLLGGKAALTLSGVQPEDEAEYYCALWYSNLWVFGGGTKLTVLGQPKAAPSVTLFPPSSEELQANKATLVCLISDFYPGAVTVAWKADSSPVKAGVETTTPSKQSNNKYAASSYLSLTPEQWKSHRSYSCQVTHEGSTVEKTVAPTECS
For B1, the “T cell activation (CD25 expression) median EC50, C4-2B cells co-cultured with donor T cells, 48 hours” value was 0.06 nM and the “T cell dependent cytotoxicity median EC50, C4-2B cells, E:T 3:1, 72 hours” value was 0.08 nM.
